For this assay, the target named is T1, human FcεRIα (alpha chain of the high affinity IgE receptor FcεRI) (human, UniProt P12319 26-257).
T1 construct: whole, on cells; also called huFcεRIα; hu FcεRIα
T1 sequence (looked up): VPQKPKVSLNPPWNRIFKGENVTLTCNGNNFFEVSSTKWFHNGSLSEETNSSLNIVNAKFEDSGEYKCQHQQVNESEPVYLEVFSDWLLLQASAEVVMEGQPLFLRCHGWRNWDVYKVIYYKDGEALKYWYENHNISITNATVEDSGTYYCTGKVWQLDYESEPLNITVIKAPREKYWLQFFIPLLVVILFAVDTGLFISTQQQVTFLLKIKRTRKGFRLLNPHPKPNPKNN
The assay is described as follows: not described.

B1: IE7 anti-huFcεRIα mAb (mouse IgG1, hybridoma ATCC PTA-125115) (antibody, V domains shown)
VH: QVQLQESGGDVVKPGGSLKLSCAASGFTFSFYGMSWVRQTPDKKLEWVATISGGGNYTYYPDSVKGRFTISRDNAMNTLYLQMNSLKSEDTAMYYCVRAYYGNWNSYWGQGTLVTVS
VL: DIVMTQTPSSMYASLGERVTITCKASQDINNYLSWFQQKPGRSPKTLIYRANRLMDGVPSRIRGSGSGQDYSLTISSLEYEDMGIYYCLLYNEFPWMFGGGTKLEIKR
notes: Original hybridoma antibody, mouse IgG1; also called mAb IE7
On to B1, for which the binding result was “binds”.

Values taken from patent publication US20210371519A1 (UNIVERSITY OF CINCINNATI, published 2021).
